Tests used:
[1] = biological target: YU2 gp140-F trimers (HIV-1 (primary isolate YU2) | not stated); assay: SEC; gel filtration on a Superdex 200 26/60 prep grade column; trimers separated from lower molecular weight forms
[2] = biological target: soluble human 4-domain CD4 (human); assay: ELISA; CD4 solution competition assay: Env trimers co-incubated with 2, 4 or 9 nM sCD4 in PBS at room temperature for 1 h; non-Env-bound sCD4 captured on plate-bound anti-CD4 RPA-T4 and detected with biotin-OKT-4

YU2 gp140-F trimers gave a stoichiometry N [1] of 3, a half-maximal binding (with 2 nM sCD4) [2] of 7 nM and a half-maximal binding (with 4 nM sCD4) [2] of 13 nM. It also gave a half-maximal binding (with 9 nM sCD4) [2] of 26 nM.

Reference: paper PMC2542413
